# Measurements from patent US20240035010, “COMPOSITIONS COMPRISING A VARIANT POLYPEPTIDE AND USES THEREOF” (Arbor Biotechnologies, Inc., published 2024).
# T1: variant nuclease SEQ ID NO: 53 (P14R, D32R, I61R, E311R, T338G, E736G)
# T1 chain: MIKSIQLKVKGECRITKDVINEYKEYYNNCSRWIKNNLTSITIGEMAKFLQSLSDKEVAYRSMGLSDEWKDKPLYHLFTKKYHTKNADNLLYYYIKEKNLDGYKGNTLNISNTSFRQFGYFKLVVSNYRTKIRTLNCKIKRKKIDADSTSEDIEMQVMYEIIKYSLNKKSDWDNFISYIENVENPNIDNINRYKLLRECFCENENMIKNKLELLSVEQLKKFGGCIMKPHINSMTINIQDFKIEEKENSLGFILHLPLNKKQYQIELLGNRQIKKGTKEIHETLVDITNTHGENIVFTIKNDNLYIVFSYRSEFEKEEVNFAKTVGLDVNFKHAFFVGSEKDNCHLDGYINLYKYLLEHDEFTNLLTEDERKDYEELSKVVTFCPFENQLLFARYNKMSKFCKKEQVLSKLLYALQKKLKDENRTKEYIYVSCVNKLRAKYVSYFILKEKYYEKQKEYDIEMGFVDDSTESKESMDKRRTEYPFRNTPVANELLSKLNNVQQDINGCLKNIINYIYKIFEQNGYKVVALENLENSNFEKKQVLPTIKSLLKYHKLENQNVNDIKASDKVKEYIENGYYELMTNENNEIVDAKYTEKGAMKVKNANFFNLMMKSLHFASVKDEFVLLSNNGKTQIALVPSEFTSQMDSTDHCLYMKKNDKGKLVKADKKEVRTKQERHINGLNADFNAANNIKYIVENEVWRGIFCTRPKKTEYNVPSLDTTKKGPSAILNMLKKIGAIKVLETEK
# B1: VEGFA_T1 crRNA ; VEGFA_T1 target (ssRNA ; dsDNA)
# RNA: CCUGUUGUGAAUACUCUUUUAUAGGUAUCAAACAACUCCUGGUGAAAGGCAGCCCU
# DNA 1: TCCTGGTGAAAGGCAGCCCT
# DNA 2: AGGGCTGCCTTTCACCAGGA
# Target: T1, variant nuclease SEQ ID NO: 53 (P14R, …)
# Experiment: cell_activity; nearly 0.6; HEK293T; PAM 5'-TTTG-3'
# Details: tags: pcDNA3.1 expression
# Method: Approximately 16 hours prior to transfection, 25,000 HEK293T cells in DMEM/10% FBS+Pen/Strep (D10 media) were plated into each well of a 96-well plate. On the day of transfection, the cells were 70-90% confluent. For each well to be transfected, a mixture of Lipofectamine 2000™ and Opti-MEM™ was prepared and incubated at room temperature for 5 minutes (Solution 1). After incubation, the Lipofectamine 2000™:Opti-MEM™ mixture was added to a separate mixture containing nuclease plasmid, RNA guide plasmid, and Opti-MEM™ (Solution 2). In the case of negative controls, the RNA guide plasmid was not included in Solution 2. Solutions 1 and 2 were mixed by pipetting up and down, then incubated at room temperature for 25 minutes. Following incubation, the Solution 1 and 2 mixture was added dropwise to each well of a 96-well plate containing the cells. Approximately 72 hours post transfection, cells were trypsinized by adding TrypLE™ to the center of each well and incubating at 37° C. for approximately 5 minutes. D10 media was then added to each well and mixed to resuspend cells. The resuspended cells were centrifuged at 500 g for 10 minutes to obtain a pellet, and the supernatant was discarded. The cell pellet was then resuspended in QuickExtract™ buffer (Lucigen®), and cells were incubated at 65° C. for 15 minutes, 68° C. for 15 minutes, and 98° C. for 10 minutes. […]
binder,measurement,value
B1,activity,~0.6 indel ratio
